# Positions of bridges follow the written chain, without caps; N, C: chain ends. Non-standard residues stand in square brackets, D forms with d. Phe(4-F) = N[C@@H](Cc1ccc(F)cc1)C(=O)O; R8 = C=CCCCCCC[C@@](C)(N)C(=O)O; Cit = NC(=O)NCCC[C@H](N)C(=O)O; αMeD = C[C@](N)(CC(=O)O)C(=O)O; hLeu = CC(C)CC[C@H](N)C(=O)O; S5 = C=CCCC[C@](C)(N)C(=O)O
# Tests used:
# Assay in all cases: Ki; method not stated; unit not printed (nM per Table 6)
# BCL-XL = target: T1, BCL-XL (UniProt Q07817 1-209)
# T1 construct: Target of the Ki columns
# BCL-2 = target: T2, BCL-2 (UniProt P10415 1-217, limits assumed)
# T2 construct: Target of the Ki columns
# MCL-1 = target: T3, MCL-1 (UniProt Q07820 172-327, limits assumed)
# T3 construct: Target of the Ki columns; also called Myeloid cell leukemia 1
# T3 sequence (Q07820 172-327 limits assumed): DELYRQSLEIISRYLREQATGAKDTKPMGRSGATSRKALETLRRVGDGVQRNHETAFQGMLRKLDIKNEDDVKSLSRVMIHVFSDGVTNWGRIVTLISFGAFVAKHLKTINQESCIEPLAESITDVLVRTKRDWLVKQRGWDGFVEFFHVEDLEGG
# T2 sequence (P10415 1-217 limits assumed): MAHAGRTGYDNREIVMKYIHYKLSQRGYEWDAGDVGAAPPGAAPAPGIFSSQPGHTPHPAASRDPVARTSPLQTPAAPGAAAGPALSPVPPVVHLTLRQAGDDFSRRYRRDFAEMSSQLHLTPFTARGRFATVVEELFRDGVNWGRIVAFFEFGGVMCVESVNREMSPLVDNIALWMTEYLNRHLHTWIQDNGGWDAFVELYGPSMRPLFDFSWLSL
# T1 sequence (Q07817 1-209): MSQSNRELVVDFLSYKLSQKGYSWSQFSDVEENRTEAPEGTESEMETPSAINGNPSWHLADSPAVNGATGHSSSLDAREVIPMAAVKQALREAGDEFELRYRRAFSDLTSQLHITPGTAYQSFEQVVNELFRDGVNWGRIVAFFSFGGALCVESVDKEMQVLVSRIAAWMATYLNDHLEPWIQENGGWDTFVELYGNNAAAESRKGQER
Binder,Ki (BCL-XL) [nM],Ki (BCL-2) [nM],Ki (MCL-1) [nM]
Ac-IHIAAALR[R8]IGDAFN[S5]YYA-NH2 (staple 9-16; SMILES CC[C@H](C)[C@H](NC(C)=O)C(=O)N[C@@H](Cc1c[nH]cn1)C(=O)N[C@H](C(=O)N[C@@H](C)C(=O)N[C@@H](C)C(=O)N[C@@H](C)C(=O)N[C@@H](CC(C)C)C(=O)N[C@@H](CCCNC(=N)N)C(=O)N[C@]1(C)CCCCCCC=CCCC[C@@](C)(C(=O)N[C@@H](Cc2ccc(O)cc2)C(=O)N[C@@H](Cc2ccc(O)cc2)C(=O)N[C@@H](C)C(N)=O)NC(=O)[C@H](CC(N)=O)NC(=O)[C@H](Cc2ccccc2)NC(=O)[C@H](C)NC(=O)[C@H](CC(=O)O)NC(=O)CNC(=O)[C@H]([C@@H](C)CC)NC1=O)[C@@H](C)CC) [SEQ ID NO: 1727],19.5,43,6.6
Ac-INIAAALR[R8]IGDAFN[S5]YYA-NH2 (staple 9-16; SMILES CC[C@H](C)[C@H](NC(C)=O)C(=O)N[C@@H](CC(N)=O)C(=O)N[C@H](C(=O)N[C@@H](C)C(=O)N[C@@H](C)C(=O)N[C@@H](C)C(=O)N[C@@H](CC(C)C)C(=O)N[C@@H](CCCNC(=N)N)C(=O)N[C@]1(C)CCCCCCC=CCCC[C@@](C)(C(=O)N[C@@H](Cc2ccc(O)cc2)C(=O)N[C@@H](Cc2ccc(O)cc2)C(=O)N[C@@H](C)C(N)=O)NC(=O)[C@H](CC(N)=O)NC(=O)[C@H](Cc2ccccc2)NC(=O)[C@H](C)NC(=O)[C@H](CC(=O)O)NC(=O)CNC(=O)[C@H]([C@@H](C)CC)NC1=O)[C@@H](C)CC) [SEQ ID NO: 1729],37.3,62.5,11.2
Ac-ILIAAALR[R8]IGDAFN[S5]YYA-NH2 (staple 9-16; SMILES CC[C@H](C)[C@H](NC(C)=O)C(=O)N[C@@H](CC(C)C)C(=O)N[C@H](C(=O)N[C@@H](C)C(=O)N[C@@H](C)C(=O)N[C@@H](C)C(=O)N[C@@H](CC(C)C)C(=O)N[C@@H](CCCNC(=N)N)C(=O)N[C@]1(C)CCCCCCC=CCCC[C@@](C)(C(=O)N[C@@H](Cc2ccc(O)cc2)C(=O)N[C@@H](Cc2ccc(O)cc2)C(=O)N[C@@H](C)C(N)=O)NC(=O)[C@H](CC(N)=O)NC(=O)[C@H](Cc2ccccc2)NC(=O)[C@H](C)NC(=O)[C@H](CC(=O)O)NC(=O)CNC(=O)[C@H]([C@@H](C)CC)NC1=O)[C@@H](C)CC) [SEQ ID NO: 1730],71.8,126,10.2
Ac-ISIAAALR[R8]IGDAFN[S5]YYA-NH2 (staple 9-16; SMILES CC[C@H](C)[C@H](NC(C)=O)C(=O)N[C@@H](CO)C(=O)N[C@H](C(=O)N[C@@H](C)C(=O)N[C@@H](C)C(=O)N[C@@H](C)C(=O)N[C@@H](CC(C)C)C(=O)N[C@@H](CCCNC(=N)N)C(=O)N[C@]1(C)CCCCCCC=CCCC[C@@](C)(C(=O)N[C@@H](Cc2ccc(O)cc2)C(=O)N[C@@H](Cc2ccc(O)cc2)C(=O)N[C@@H](C)C(N)=O)NC(=O)[C@H](CC(N)=O)NC(=O)[C@H](Cc2ccccc2)NC(=O)[C@H](C)NC(=O)[C@H](CC(=O)O)NC(=O)CNC(=O)[C@H]([C@@H](C)CC)NC1=O)[C@@H](C)CC) [SEQ ID NO: 1728],56.2,89.5,15.3
Ac-IFIAAALR[R8]IGDAFN[S5]YYA-NH2 (staple 9-16; SMILES CC[C@H](C)[C@H](NC(C)=O)C(=O)N[C@@H](Cc1ccccc1)C(=O)N[C@H](C(=O)N[C@@H](C)C(=O)N[C@@H](C)C(=O)N[C@@H](C)C(=O)N[C@@H](CC(C)C)C(=O)N[C@@H](CCCNC(=N)N)C(=O)N[C@]1(C)CCCCCCC=CCCC[C@@](C)(C(=O)N[C@@H](Cc2ccc(O)cc2)C(=O)N[C@@H](Cc2ccc(O)cc2)C(=O)N[C@@H](C)C(N)=O)NC(=O)[C@H](CC(N)=O)NC(=O)[C@H](Cc2ccccc2)NC(=O)[C@H](C)NC(=O)[C@H](CC(=O)O)NC(=O)CNC(=O)[C@H]([C@@H](C)CC)NC1=O)[C@@H](C)CC) [SEQ ID NO: 1731],45.3,95.9,10.2
IWIAQALRAIGDAFNAYYX (N-terminal Ac; $r8 at 9 and $ at 16 (crosslinked); Aib at 19; C-terminal NH2) [SEQ ID NO: 1770],,218,29
Ac-AWIAAALR[R8][hLeu]GDAFN[S5]Y[Phe(4-F)]A-NH2 (staple 9-16; SMILES CC[C@H](C)[C@H](NC(=O)[C@H](Cc1c[nH]c2ccccc12)NC(=O)[C@H](C)NC(C)=O)C(=O)N[C@@H](C)C(=O)N[C@@H](C)C(=O)N[C@@H](C)C(=O)N[C@@H](CC(C)C)C(=O)N[C@@H](CCCNC(=N)N)C(=O)N[C@]1(C)CCCCCCC=CCCC[C@@](C)(C(=O)N[C@@H](Cc2ccc(O)cc2)C(=O)N[C@@H](Cc2ccc(F)cc2)C(=O)N[C@@H](C)C(N)=O)NC(=O)[C@H](CC(N)=O)NC(=O)[C@H](Cc2ccccc2)NC(=O)[C@H](C)NC(=O)[C@H](CC(=O)O)NC(=O)CNC(=O)[C@H](CCC(C)C)NC1=O) [SEQ ID NO: 1779],37,,52
Ac-IWIAQALR[R8]IG[αMeD]AFN[S5]YYA-NH2 (staple 9-16; SMILES CC[C@H](C)[C@H](NC(C)=O)C(=O)N[C@@H](Cc1c[nH]c2ccccc12)C(=O)N[C@H](C(=O)N[C@@H](C)C(=O)N[C@@H](CCC(N)=O)C(=O)N[C@@H](C)C(=O)N[C@@H](CC(C)C)C(=O)N[C@@H](CCCNC(=N)N)C(=O)N[C@]1(C)CCCCCCC=CCCC[C@@](C)(C(=O)N[C@@H](Cc2ccc(O)cc2)C(=O)N[C@@H](Cc2ccc(O)cc2)C(=O)N[C@@H](C)C(N)=O)NC(=O)[C@H](CC(N)=O)NC(=O)[C@H](Cc2ccccc2)NC(=O)[C@H](C)NC(=O)[C@](C)(CC(=O)O)NC(=O)CNC(=O)[C@H]([C@@H](C)CC)NC1=O)[C@@H](C)CC) [SEQ ID NO: 1768],206,,
Ac-IWIAQAA[Cit][R8]IGDAFN[S5]YYA-NH2 (staple 9-16; SMILES CC[C@H](C)[C@H](NC(C)=O)C(=O)N[C@@H](Cc1c[nH]c2ccccc12)C(=O)N[C@H](C(=O)N[C@@H](C)C(=O)N[C@@H](CCC(N)=O)C(=O)N[C@@H](C)C(=O)N[C@@H](C)C(=O)N[C@@H](CCCNC(N)=O)C(=O)N[C@]1(C)CCCCCCC=CCCC[C@@](C)(C(=O)N[C@@H](Cc2ccc(O)cc2)C(=O)N[C@@H](Cc2ccc(O)cc2)C(=O)N[C@@H](C)C(N)=O)NC(=O)[C@H](CC(N)=O)NC(=O)[C@H](Cc2ccccc2)NC(=O)[C@H](C)NC(=O)[C@H](CC(=O)O)NC(=O)CNC(=O)[C@H]([C@@H](C)CC)NC1=O)[C@@H](C)CC) [SEQ ID NO: 1771],85,,

# Other lines, results leading:
Ki (BCL-XL) [nM],Ki (BCL-2) [nM],Ki (MCL-1) [nM],Binder
43,,58,Ac-IWIAQALR[R8][hLeu]GDAFN[S5][Phe(4-F)]YA-NH2 (staple 9-16; SMILES CC[C@H](C)[C@H](NC(C)=O)C(=O)N[C@@H](Cc1c[nH]c2ccccc12)C(=O)N[C@H](C(=O)N[C@@H](C)C(=O)N[C@@H](CCC(N)=O)C(=O)N[C@@H](C)C(=O)N[C@@H](CC(C)C)C(=O)N[C@@H](CCCNC(=N)N)C(=O)N[C@]1(C)CCCCCCC=CCCC[C@@](C)(C(=O)N[C@@H](Cc2ccc(F)cc2)C(=O)N[C@@H](Cc2ccc(O)cc2)C(=O)N[C@@H](C)C(N)=O)NC(=O)[C@H](CC(N)=O)NC(=O)[C@H](Cc2ccccc2)NC(=O)[C@H](C)NC(=O)[C@H](CC(=O)O)NC(=O)CNC(=O)[C@H](CCC(C)C)NC1=O)[C@@H](C)CC) [SEQ ID NO: 1776]
121,,127,Ac-IWIAQALR[R8][hLeu]GDAFN[S5][Phe(4-F)][Phe(4-F)]A-NH2 (staple 9-16; SMILES CC[C@H](C)[C@H](NC(C)=O)C(=O)N[C@@H](Cc1c[nH]c2ccccc12)C(=O)N[C@H](C(=O)N[C@@H](C)C(=O)N[C@@H](CCC(N)=O)C(=O)N[C@@H](C)C(=O)N[C@@H](CC(C)C)C(=O)N[C@@H](CCCNC(=N)N)C(=O)N[C@]1(C)CCCCCCC=CCCC[C@@](C)(C(=O)N[C@@H](Cc2ccc(F)cc2)C(=O)N[C@@H](Cc2ccc(F)cc2)C(=O)N[C@@H](C)C(N)=O)NC(=O)[C@H](CC(N)=O)NC(=O)[C@H](Cc2ccccc2)NC(=O)[C@H](C)NC(=O)[C@H](CC(=O)O)NC(=O)CNC(=O)[C@H](CCC(C)C)NC1=O)[C@@H](C)CC) [SEQ ID NO: 1778]
13,,27,Ac-IWIAQALR[R8][hLeu]GDAFN[S5]Y[Phe(4-F)]A-NH2 (staple 9-16; SMILES CC[C@H](C)[C@H](NC(C)=O)C(=O)N[C@@H](Cc1c[nH]c2ccccc12)C(=O)N[C@H](C(=O)N[C@@H](C)C(=O)N[C@@H](CCC(N)=O)C(=O)N[C@@H](C)C(=O)N[C@@H](CC(C)C)C(=O)N[C@@H](CCCNC(=N)N)C(=O)N[C@]1(C)CCCCCCC=CCCC[C@@](C)(C(=O)N[C@@H](Cc2ccc(O)cc2)C(=O)N[C@@H](Cc2ccc(F)cc2)C(=O)N[C@@H](C)C(N)=O)NC(=O)[C@H](CC(N)=O)NC(=O)[C@H](Cc2ccccc2)NC(=O)[C@H](C)NC(=O)[C@H](CC(=O)O)NC(=O)CNC(=O)[C@H](CCC(C)C)NC1=O)[C@@H](C)CC) [SEQ ID NO: 1777]
9,,23,Ac-AWIAAALR[R8][hLeu]GDAFN[S5]A[Phe(4-F)]A-NH2 (staple 9-16; SMILES CC[C@H](C)[C@H](NC(=O)[C@H](Cc1c[nH]c2ccccc12)NC(=O)[C@H](C)NC(C)=O)C(=O)N[C@@H](C)C(=O)N[C@@H](C)C(=O)N[C@@H](C)C(=O)N[C@@H](CC(C)C)C(=O)N[C@@H](CCCNC(=N)N)C(=O)N[C@]1(C)CCCCCCC=CCCC[C@@](C)(C(=O)N[C@@H](C)C(=O)N[C@@H](Cc2ccc(F)cc2)C(=O)N[C@@H](C)C(N)=O)NC(=O)[C@H](CC(N)=O)NC(=O)[C@H](Cc2ccccc2)NC(=O)[C@H](C)NC(=O)[C@H](CC(=O)O)NC(=O)CNC(=O)[C@H](CCC(C)C)NC1=O) [SEQ ID NO: 1780]

# Reference: patent publication US20180273587A1 (AILERON THERAPEUTICS, published 2018)
